B1: Hammerhead Ribozyme (parent)
chain: ACCGGAUGUGCUUUCCGGUCUGAUGAGUCCGUGAGGACGAAACAG

In this data set the parent is B1. Description: self-cleavage, relative activity (ratio to wild type); higher = more cleavage; co-transcriptional.
In the case of G5A U12C, the self-cleavage was 1.07.
Regarding G5A U12A, the self-cleavage came out at 1.22.
For G5A U12G, the self-cleavage came out at 1.31.
For the variant G5C U13C, the self-cleavage is 0.681.
The figure for G5C U13A is 1.25.
As to G5C U13G, the self-cleavage is 0.85.
G4U U21A: the self-cleavage was 0.342.
For the variant G4U U21C, the self-cleavage amounted to 0.352.
For G4U U21G, the self-cleavage was 0.325.
Regarding G5U G17U, the self-cleavage came to 0.351.
As to G5U G17C, the self-cleavage stood at 0.309.
Consider G5U G17A, for which the self-cleavage turned out to be 0.337.
For G5A C16G, the self-cleavage was determined as 0.931.
In the case of G5A C16U, the self-cleavage was found to be 1.54.
For the variant G5A C16A, the self-cleavage is 1.56.
With G5C, the self-cleavage was 0.669.
Take G5U: the self-cleavage worked out at 0.934.
For the variant G5A, the self-cleavage stood at 1.32.
The result for G5U A37G reads 0.46.
The result for G5U A37C reads 0.403.
For the variant G5U A37U, the self-cleavage stood at 0.417.
The figure for G5A U7G is 1.56; for G5A U7C it is 1.06.
With G5A U7A, the self-cleavage was found to be 0.95.
On to G5A C29A, for which the self-cleavage worked out at 0.445.
The figure for G5A C29G is 0.464; for G5A C29U it is 0.95; for G4U U32A it is 0.507.
The figure for G4U U32G is 0.316; for G4U U32C it is 0.487.
On to G5A G8U, for which the self-cleavage was 1.33.
For the variant G5A G8C, the self-cleavage is 0.954.
In the case of G5A G8A, the self-cleavage turned out to be 1.24.
The figure for G5C C30A is 0.623.
As to G5C C30U, the self-cleavage was determined as 0.539.
As to G5C C30G, the self-cleavage came out at 0.314.
Turning to G5C A6C, the self-cleavage is 0.423.
The figure for G5C A6U is 0.631; for G5C A6G it is 0.437; for G5C C16U it is 0.883.
Turning to G5C C16G, the self-cleavage was determined as 0.716.
As for G5C C16A, the self-cleavage was determined as 1.19.
Consider G5U A40G, for which the self-cleavage came out at 0.35.
Take G5U A40U: the self-cleavage was 0.319.
The result for G5U A40C reads 0.375; that for G5C A42C, 0.356; that for G5C A42U, 0.328.
On to G5C A42G, for which the self-cleavage was found to be 0.24.
Consider G4U U14C, for which the self-cleavage was 0.416.
Consider G4U U14A, for which the self-cleavage turned out to be 0.469.
For G4U U14G, the self-cleavage came to 0.722.
In the case of G5C U32C, the self-cleavage turned out to be 0.559.
Regarding G5C U32G, the self-cleavage is 0.452.
Take G5C U32A: the self-cleavage was 0.549.
With G5C G33C, the self-cleavage was found to be 0.58.
For the variant G5C G33U, the self-cleavage was found to be 0.736.
On to G5C G33A, for which the self-cleavage came out at 0.776.
With G5A U32C, the self-cleavage turned out to be 1.15.
G5A U32G: the self-cleavage is 0.533.
The figure for G5A U32A is 1.32.
The figure for G5C C20A is 0.271.
On to G5C C20U, for which the self-cleavage amounted to 0.358.
Consider G5C C20G, for which the self-cleavage came out at 0.265.
On to G5C C38G, for which the self-cleavage amounted to 0.278.
The result for G5C C38U reads 0.479; that for G5C C38A, 0.264; that for G5C A34G, 0.74.
The figure for G5C A34C is 0.336; for G5C A34U it is 0.477.
For G5A G33A, the self-cleavage stood at 1.44.
For G5A G33U, the self-cleavage was found to be 1.44.
G5A G33C: the self-cleavage came out at 1.22.
The result for G5U A6C reads 0.336; that for G5U A6G, 0.644; that for G5U A6U, 0.63.
For the variant G5A U21C, the self-cleavage is 0.977.
The figure for G5A U21G is 0.378; for G5A U21A it is 0.57.
With G4U U28G, the self-cleavage came to 0.308.
The result for G4U U28A reads 0.234; that for G4U U28C, 0.266.
The result for G5A C11U reads 0.804.
Consider G5A C11G, for which the self-cleavage came out at 1.27.
For G5A C11A, the self-cleavage was 1.43.
Regarding G5A G22A, the self-cleavage came out at 0.322.
Regarding G5A G22U, the self-cleavage is 0.325.
Consider G5A G22C, for which the self-cleavage was 0.315.
In the case of G5C U7A, the self-cleavage was 0.874.
Turning to G5C U7C, the self-cleavage is 0.72.
The result for G5C U7G reads 0.611; that for G5C U14G, 0.929; that for G5C U14C, 0.429.
The figure for G5C U14A is 0.845; for G5U C38A it is 0.431.
For the variant G5U C38G, the self-cleavage was 0.349.
The figure for G5U C38U is 0.498; for G5A A23G it is 0.385; for G5A A23C it is 0.315.
Turning to G5A A23U, the self-cleavage worked out at 0.304.
Consider G5A A6C, for which the self-cleavage amounted to 0.483.
Take G5A A6U: the self-cleavage turned out to be 0.696.
On to G5A A6G, for which the self-cleavage stood at 0.82.
Take G5A A26G: the self-cleavage stood at 0.398.
In the case of G5A A26C, the self-cleavage was determined as 0.464.
Consider G5A A26U, for which the self-cleavage turned out to be 0.66.
As for G5A U9C, the self-cleavage came out at 1.37.
As to G5A U9A, the self-cleavage is 1.27.
With G5A U9G, the self-cleavage worked out at 0.88.
As to G5U A44U, the self-cleavage was 0.391.
Take G5U A44G: the self-cleavage came out at 0.918.
For G5U A44C, the self-cleavage is 0.515.
Consider G5A C20A, for which the self-cleavage turned out to be 0.415.
In the case of G5A C20U, the self-cleavage is 1.01.
Take G5A C20G: the self-cleavage was determined as 0.286.
In the case of G5C G8A, the self-cleavage was determined as 0.619.
G5C G8U: the self-cleavage was 0.693.
The result for G5C G8C reads 0.77.
In the case of G5U A26G, the self-cleavage stood at 0.332.
With G5U A26C, the self-cleavage stood at 0.357.
In the case of G5U A26U, the self-cleavage was 0.449.
As for G4U U12C, the self-cleavage is 0.496.
For G4U U12A, the self-cleavage was 0.547.
With G4U U12G, the self-cleavage came to 0.564.
On to G5A A34G, for which the self-cleavage is 1.2.
Consider G5A A34U, for which the self-cleavage came out at 1.06.
For G5A A34C, the self-cleavage was found to be 1.1.
Turning to G5C G18C, the self-cleavage amounted to 0.34.
As for G5C G18U, the self-cleavage turned out to be 0.307.
G5C G18A: the self-cleavage is 0.293.
As for G5C G22C, the self-cleavage worked out at 0.243.
Turning to G5C G22A, the self-cleavage stood at 0.263.
On to G5C G22U, for which the self-cleavage came out at 0.299.
As for G5U A34C, the self-cleavage worked out at 0.833.
As for G5U A34U, the self-cleavage was found to be 0.83.
With G5U A34G, the self-cleavage came to 0.882.
The result for G5C A44U reads 0.358; that for G5C A44C, 0.345.
Take G5C A44G: the self-cleavage was 0.831.
On to G5C G45C, for which the self-cleavage is 0.397.
The figure for G5C G45A is 0.384.
In the case of G5C G45U, the self-cleavage was found to be 0.382.
Turning to G4U U24C, the self-cleavage was determined as 0.549.
On to G4U U24G, for which the self-cleavage amounted to 0.372.
For the variant G4U U24A, the self-cleavage was found to be 0.442.
As for G5A U24A, the self-cleavage is 1.21.
Regarding G5A U24C, the self-cleavage was found to be 1.43.
For G5A U24G, the self-cleavage worked out at 0.965.
Take G5C C11A: the self-cleavage was found to be 0.761.
Consider G5C C11G, for which the self-cleavage was found to be 0.873.
Consider G5C C11U, for which the self-cleavage stood at 0.336.
With G5A G35C, the self-cleavage came to 0.66.
Consider G5A G35A, for which the self-cleavage worked out at 0.642.
Regarding G5A G35U, the self-cleavage was determined as 0.848.
For G5A G17A, the self-cleavage turned out to be 0.397.
As for G5A G17C, the self-cleavage was 0.434.
G5A G17U: the self-cleavage came out at 0.452.
Take G5C A37G: the self-cleavage is 0.44.
For the variant G5C A37C, the self-cleavage amounted to 0.259.
For the variant G5C A37U, the self-cleavage came out at 0.238.
The result for G5A C38A reads 0.65.
For G5A C38U, the self-cleavage was 0.935.
G5A C38G: the self-cleavage amounted to 0.575.
For G5U G8C, the self-cleavage came to 0.942.
As for G5U G8U, the self-cleavage is 0.81.
The figure for G5U G8A is 0.748; for G5C G35C it is 0.324.
In the case of G5C G35A, the self-cleavage came to 0.362.

These data come from the RNAGym collection of RNA variant scans (doi:10.7554/elife.80360).
